The values below come from patent US20120121587A1 (Chugai, published 2012).

The target of this test is T1, Human recombinant AXL-FND1 (GST-FND1), from pET-41b(+) (human, UniProt P30530 225-331).
T1 construct: Expressed in E. coli, purified on Glutathione Sepharose; analyte in all Biacore measurements; GST put first by the usual layout of pET-41; not shown: GST-tag of vector pET-41b(+) (Novagen)
T1 sequence (looked up): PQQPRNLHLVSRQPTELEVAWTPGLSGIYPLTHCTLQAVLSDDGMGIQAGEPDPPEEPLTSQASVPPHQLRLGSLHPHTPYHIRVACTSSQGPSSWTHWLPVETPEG
As to the kind of experiment: SPR (Biacore T100): antibody captured on Protein A, GST-FND1 as analyte. Here is the method: Kinetic analyses of antigen-antibody reactions of humanized AXL antibodies were carried out using Biacore T100 (BIACORE). rec-Protein A (Zymed) (hereinafter, Protein A) was immobilized onto a sensor chip, various antibodies were bound to it, then an antigen as the analyte was flushed to measure the antibody-antigen interaction. Human recombinant AXL-FND1 (prepared in 2-2; hereinafter referred to as GST-FND1) prepared at various concentrations was used as the antigen. From the sensorgrams obtained through the measurements, kinetic parameters, namely binding rate constant kₐ (1/Ms) and dissociation rate constant kd (1/s), were calculated, and Kd (M) was calculated based on these values. Biacore T100 Evaluation Software (BIACORE) was used to calculate each of the parameters.
The sensor chips were produced by immobilizing approximately 3000 RU of Protein A onto CM5 (BIACORE) by amine coupling. Using the produced sensor chip, kinetic analyses were carried out on the interaction between the Protein A-bound antibodies and GST-FND1. HBS-EP+ was used as the running buffer, and the flow rate was set to 30 μL/min. Each antibody was prepared at 1 μg/mL using the running buffer, and was subjected to binding with Protein A for two minutes. GST-FND1 as the analyte was prepared at 0.5 and 2.0 μg/mL using HBS-EP+. Measurements were carried out by first binding the various humanized AXL antibodies, chimeric AXL antibodies, or mouse AXL antibodies of interest to Protein A, then applying an analyte solution to them for a two-minute interaction, and then switching to HBS-EP+ (BIACORE) for a two-minute measurement of the dissociation phase. After completion of measurement of the dissociation phase, 30 μL of 10 mM glycine-HCl (pH 2.0) was used for washing to regenerate the sensor chip. Such binding, dissociation, and regeneration were defined as one cycle of analysis. All experiments were performed at 25° C.
Affinity evaluation of each of the variants by Biacore was carried out by the method of Example 2.

B1: H9/L1 (antibody, human IgG1, kappa)
heavy: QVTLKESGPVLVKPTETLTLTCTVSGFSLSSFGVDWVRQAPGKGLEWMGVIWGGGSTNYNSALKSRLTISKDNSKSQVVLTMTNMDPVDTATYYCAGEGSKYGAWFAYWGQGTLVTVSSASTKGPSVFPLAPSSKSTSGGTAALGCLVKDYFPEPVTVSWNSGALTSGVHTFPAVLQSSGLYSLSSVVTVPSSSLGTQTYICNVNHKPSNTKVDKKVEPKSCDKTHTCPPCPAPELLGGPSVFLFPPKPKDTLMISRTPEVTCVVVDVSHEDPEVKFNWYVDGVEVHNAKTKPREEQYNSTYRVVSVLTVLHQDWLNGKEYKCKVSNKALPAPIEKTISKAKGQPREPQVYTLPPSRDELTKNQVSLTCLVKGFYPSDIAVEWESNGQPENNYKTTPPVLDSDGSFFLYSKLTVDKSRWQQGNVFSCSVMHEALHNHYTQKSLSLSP
light: DVVMTQSPLSLPVTLGQPASISCQSSQNIVHTNGNTYLEWYQQKPGKAPELLIYKVSNRFSGVPDRFSGSGSGTDFTLKISRVEAEDVGVYYCFQGSHIPFTFGQGTKLEIKRTVAAPSVFIFPPSDEQLKSGTASVVCLLNNFYPREAKVQWKVDNALQSGNSQESVTEQDSKDSTYSLSSTLTLSKADYEKHKVYACEVTHQGLSSPVTKSFNRGEC
In general, Kd refers to the constant that tells how readily two partners part at equilibrium. Consider B1, for which the Kd is 2.49 nM.

B2: H9/L4 (antibody, human IgG1, kappa, V domains shown)
VH: QVTLKESGPVLVKPTETLTLTCTVSGFSLSSFGVDWVRQAPGKGLEWMGVIWGGGSTNYNSALKSRLTISKDNSKSQVVLTMTNMDPVDTATYYCAGEGSKYGAWFAYWGQGTLVTVSS
VL: DVVMTQSPLSLPVTLGQPASISCRSSQNIVHTNGNTYLEWYQQKPGEAPELLIYKVSNRFSGVPDRFSGSGSGTDFTLKISRVEAEDVGVYYCFQGSHIPFTFGQGTKLEIKR
Regarding B2, the Kd turned out to be 2.64 nM.

B3: H9/L12 (antibody, human IgG1, kappa, V domains shown)
VH: QVTLKESGPVLVKPTETLTLTCTVSGFSLSSFGVDWVRQAPGKGLEWMGVIWGGGSTNYNSALKSRLTISKDNSKSQVVLTMTNMDPVDTATYYCAGEGSKYGAWFAYWGQGTLVTVSS
VL: DVVMTQSPLSLPVTLGQPASISCQSSQNIVHTNGNTYLEWYQQKPGEAPELLIYKVSNRFSGVPDRFSGSGSGTDFTLKISRVEAEDVGVYYCFQGSHIPFTFGQGTKVEIER
As for B3, the Kd was found to be 2.55 nM.

B4: H9/L29 (antibody, human IgG1, kappa)
heavy: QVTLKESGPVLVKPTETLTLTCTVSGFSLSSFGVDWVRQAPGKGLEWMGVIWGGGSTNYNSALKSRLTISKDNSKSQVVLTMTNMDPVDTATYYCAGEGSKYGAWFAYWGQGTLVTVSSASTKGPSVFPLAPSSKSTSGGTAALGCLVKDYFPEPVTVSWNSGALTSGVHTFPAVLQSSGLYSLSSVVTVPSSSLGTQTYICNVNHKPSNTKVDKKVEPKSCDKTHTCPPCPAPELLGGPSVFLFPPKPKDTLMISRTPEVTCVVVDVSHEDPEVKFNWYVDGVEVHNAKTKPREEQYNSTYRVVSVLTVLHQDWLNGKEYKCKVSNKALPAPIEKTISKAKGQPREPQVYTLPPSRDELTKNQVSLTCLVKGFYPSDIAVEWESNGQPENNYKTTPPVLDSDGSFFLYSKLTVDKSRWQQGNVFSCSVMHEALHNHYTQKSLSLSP
light: DVVMTQSPLSLPVTLGQPASISCRSSQNIVHTNGNTYLEWYQQKPGKAPELLIYKVSNRFSGVPDRFSGSGSGTDFTLKISRVEAEDVGVYYCFQGSHIPFTFGRGTKLEIKRTVAAPSVFIFPPSDEQLKSGTASVVCLLNNFYPREAKVQWKVDNALQSGNSQESVTEQDSKDSTYSLSSTLTLSKADYEKHKVYACEVTHQGLSSPVTKSFNRGEC
As to B4, the Kd was 3.49 nM.

B5: H9/L35 (antibody, human IgG1, kappa)
heavy: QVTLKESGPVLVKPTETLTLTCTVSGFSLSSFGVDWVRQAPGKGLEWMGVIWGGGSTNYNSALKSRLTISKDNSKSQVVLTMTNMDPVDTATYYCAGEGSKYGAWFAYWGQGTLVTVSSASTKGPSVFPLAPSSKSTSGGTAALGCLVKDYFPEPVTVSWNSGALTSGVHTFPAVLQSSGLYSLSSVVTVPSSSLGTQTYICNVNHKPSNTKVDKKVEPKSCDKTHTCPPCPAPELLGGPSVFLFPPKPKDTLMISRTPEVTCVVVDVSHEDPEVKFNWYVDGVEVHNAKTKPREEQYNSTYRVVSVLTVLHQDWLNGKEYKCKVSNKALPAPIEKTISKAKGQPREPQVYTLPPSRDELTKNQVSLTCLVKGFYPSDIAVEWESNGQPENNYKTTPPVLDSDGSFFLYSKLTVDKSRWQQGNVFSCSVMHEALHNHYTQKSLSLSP
light: DVVMTQSPLSLPVTLGQPASISCRSSRNIVHTNGNTYLEWYQQKPGKAPKLLIYKVSNRFSGVPDRFSGSGSGTDFTLKISRVEAEDVGVYYCFQGSHIPFTFGRGTKLEIKRTVAAPSVFIFPPSDEQLKSGTASVVCLLNNFYPREAKVQWKVDNALQSGNSQESVTEQDSKDSTYSLSSTLTLSKADYEKHKVYACEVTHQGLSSPVTKSFNRGEC
With B5, the Kd amounted to 2.37 nM.

B6: H9/L31 (antibody, human IgG1, kappa)
heavy: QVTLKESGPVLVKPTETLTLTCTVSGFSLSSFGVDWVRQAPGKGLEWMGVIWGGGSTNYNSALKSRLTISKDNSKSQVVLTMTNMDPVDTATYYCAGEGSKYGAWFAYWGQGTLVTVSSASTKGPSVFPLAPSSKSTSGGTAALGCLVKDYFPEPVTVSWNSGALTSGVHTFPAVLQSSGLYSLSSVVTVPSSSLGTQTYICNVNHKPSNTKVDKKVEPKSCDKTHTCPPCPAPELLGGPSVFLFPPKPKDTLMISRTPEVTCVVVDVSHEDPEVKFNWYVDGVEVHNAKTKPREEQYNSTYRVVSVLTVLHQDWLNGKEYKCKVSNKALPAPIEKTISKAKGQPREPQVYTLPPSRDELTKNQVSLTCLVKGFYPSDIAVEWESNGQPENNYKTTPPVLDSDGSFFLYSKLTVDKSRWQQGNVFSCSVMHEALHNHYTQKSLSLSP
light: DVVMTQSPLSLPVTLGQPASISCRSSRNIVHTNGNTYLEWYQQKPGKAPKLLIYKVSNRFSGVPDRFSGSGSGTDFTLKISRVEAEDVGVYYCFQGSHIPFTFGQGTKLEIKRTVAAPSVFIFPPSDEQLKSGTASVVCLLNNFYPREAKVQWKVDNALQSGNSQESVTEQDSKDSTYSLSSTLTLSKADYEKHKVYACEVTHQGLSSPVTKSFNRGEC
In the case of B6, the Kd is 2.46 nM.

B7: H9/L10 (antibody, human IgG1, kappa)
heavy: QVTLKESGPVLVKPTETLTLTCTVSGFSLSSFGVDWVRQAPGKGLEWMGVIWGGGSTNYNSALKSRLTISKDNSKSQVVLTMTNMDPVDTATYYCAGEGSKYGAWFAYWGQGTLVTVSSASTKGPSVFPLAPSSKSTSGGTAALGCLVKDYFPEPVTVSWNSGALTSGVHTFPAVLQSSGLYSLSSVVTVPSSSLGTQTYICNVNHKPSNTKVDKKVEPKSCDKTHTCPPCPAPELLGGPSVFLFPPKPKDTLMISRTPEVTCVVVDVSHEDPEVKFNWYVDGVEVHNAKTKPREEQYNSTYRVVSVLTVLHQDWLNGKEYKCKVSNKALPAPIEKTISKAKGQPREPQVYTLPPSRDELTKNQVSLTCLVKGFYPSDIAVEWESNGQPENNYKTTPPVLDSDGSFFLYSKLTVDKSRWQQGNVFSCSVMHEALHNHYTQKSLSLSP
light: DVVMTQSPLSLPVTLGQPASISCRSSQNIVHTNGNTYLEWYQQKPGKAPELLIYKVSNRFSGVPDRFSGSGSGTDFTLKISRVEAEDVGVYYCFQGSHIPFTFGQGTKVEIERTVAAPSVFIFPPSDEQLKSGTASVVCLLNNFYPREAKVQWKVDNALQSGNSQESVTEQDSKDSTYSLSSTLTLSKADYEKHKVYACEVTHQGLSSPVTKSFNRGEC
Regarding B7, the Kd was 2.92 nM.

B8: H9/L25 (antibody, human IgG1, kappa)
heavy: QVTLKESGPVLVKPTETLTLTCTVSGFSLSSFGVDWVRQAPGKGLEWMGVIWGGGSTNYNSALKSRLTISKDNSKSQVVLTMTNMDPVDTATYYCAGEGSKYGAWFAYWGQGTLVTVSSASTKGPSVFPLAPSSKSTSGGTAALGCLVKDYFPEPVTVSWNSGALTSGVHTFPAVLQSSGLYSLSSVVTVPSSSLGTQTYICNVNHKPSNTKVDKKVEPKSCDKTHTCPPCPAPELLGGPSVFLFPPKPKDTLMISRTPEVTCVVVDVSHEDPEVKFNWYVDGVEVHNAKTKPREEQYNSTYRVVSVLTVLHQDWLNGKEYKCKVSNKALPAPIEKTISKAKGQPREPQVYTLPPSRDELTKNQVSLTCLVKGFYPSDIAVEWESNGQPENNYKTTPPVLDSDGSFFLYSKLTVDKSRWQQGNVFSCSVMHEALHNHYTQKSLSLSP
light: DVVMTQSPLSLPVTLGRPASISCRSSQNIVHTNGNTYLEWYQQKPGKAPELLIYKVSNRFSGVPDRFSGSGSGTDFTLKISRVEAEDVGVYYCFQGSHIPFTFGQGTKLEIKRTVAAPSVFIFPPSDEQLKSGTASVVCLLNNFYPREAKVQWKVDNALQSGNSQESVTEQDSKDSTYSLSSTLTLSKADYEKHKVYACEVTHQGLSSPVTKSFNRGEC
Regarding B8, the Kd stood at 3.54 nM.

B9: H9/L13 (antibody, human IgG1, kappa, V domains shown)
VH: QVTLKESGPVLVKPTETLTLTCTVSGFSLSSFGVDWVRQAPGKGLEWMGVIWGGGSTNYNSALKSRLTISKDNSKSQVVLTMTNMDPVDTATYYCAGEGSKYGAWFAYWGQGTLVTVSS
VL: DVVMTQSPLSLPVTLGQPASISCQSSQNIVHTNGNTYLEWYQQKPGQAPELLIYKVSNRFSGVPDRFSGSGSGTDFTLKISRVEAEDVGVYYCFQGSHIPFTFGQGTKVEIER
As for B9, the Kd came out at 2.45 nM.

B10: H9/L28 (antibody, human IgG1, kappa, V domains shown)
VH: QVTLKESGPVLVKPTETLTLTCTVSGFSLSSFGVDWVRQAPGKGLEWMGVIWGGGSTNYNSALKSRLTISKDNSKSQVVLTMTNMDPVDTATYYCAGEGSKYGAWFAYWGQGTLVTVSS
VL: DVVMTQSPLSLPVTLGQPASISCRSSQNIVHTNGNTYLEWYQQKPGKAPKLLIYKVSNRFSGVPDRFSGSGSGTDFTLKISRVEAEDVGVYYCFQGSHIPFTFGQGTKLEIKR
Consider B10, for which the Kd came out at 3.06 nM.

B11: H9/L11 (antibody, human IgG1, kappa)
heavy: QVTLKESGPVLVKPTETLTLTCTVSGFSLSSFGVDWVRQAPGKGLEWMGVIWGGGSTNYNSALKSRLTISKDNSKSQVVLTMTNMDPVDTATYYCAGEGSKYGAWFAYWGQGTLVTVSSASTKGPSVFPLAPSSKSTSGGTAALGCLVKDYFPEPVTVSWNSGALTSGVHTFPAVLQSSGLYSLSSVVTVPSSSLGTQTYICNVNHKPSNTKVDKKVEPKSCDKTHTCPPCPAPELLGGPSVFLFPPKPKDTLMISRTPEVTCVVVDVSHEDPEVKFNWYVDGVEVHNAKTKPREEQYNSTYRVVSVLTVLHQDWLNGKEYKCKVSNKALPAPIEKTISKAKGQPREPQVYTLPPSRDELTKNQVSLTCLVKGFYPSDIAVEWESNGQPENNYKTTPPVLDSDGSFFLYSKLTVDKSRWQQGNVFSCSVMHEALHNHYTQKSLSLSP
light: DVVMTQSPLSLPVTLGQPASISCQSSQNIVHTNGNTYLEWYQQKPGKAPELLIYKVSNRFSGVPDRFSGSGSGTDFTLKISRVEAEDVGVYYCFQGSHIPFTFGQGTKVEIERTVAAPSVFIFPPSDEQLKSGTASVVCLLNNFYPREAKVQWKVDNALQSGNSQESVTEQDSKDSTYSLSSTLTLSKADYEKHKVYACEVTHQGLSSPVTKSFNRGEC
Consider B11, for which the Kd came out at 2.4 nM.

B12: H9/L5 (antibody, human IgG1, kappa, V domains shown)
VH: QVTLKESGPVLVKPTETLTLTCTVSGFSLSSFGVDWVRQAPGKGLEWMGVIWGGGSTNYNSALKSRLTISKDNSKSQVVLTMTNMDPVDTATYYCAGEGSKYGAWFAYWGQGTLVTVSS
VL: DVVMTQSPLSLPVTLGQPASISCRSSQNIVHTNGNTYLEWYQQKPGQAPELLIYKVSNRFSGVPDRFSGSGSGTDFTLKISRVEAEDVGVYYCFQGSHIPFTFGQGTKLEIKR
As to B12, the Kd worked out at 2.53 nM.

B13: H9/L27 (antibody, human IgG1, kappa, V domains shown)
VH: QVTLKESGPVLVKPTETLTLTCTVSGFSLSSFGVDWVRQAPGKGLEWMGVIWGGGSTNYNSALKSRLTISKDNSKSQVVLTMTNMDPVDTATYYCAGEGSKYGAWFAYWGQGTLVTVSS
VL: DVVMTQSPLSLPVTLGQPASISCRSSRNIVHTNGNTYLEWYQQKPGKAPELLIYKVSNRFSGVPDRFSGSGSGTDFTLKISRVEAEDVGVYYCFQGSHIPFTFGQGTKLEIKR
On to B13, for which the Kd stood at 3.07 nM.

B14: H9/L34 (antibody, human IgG1, kappa)
heavy: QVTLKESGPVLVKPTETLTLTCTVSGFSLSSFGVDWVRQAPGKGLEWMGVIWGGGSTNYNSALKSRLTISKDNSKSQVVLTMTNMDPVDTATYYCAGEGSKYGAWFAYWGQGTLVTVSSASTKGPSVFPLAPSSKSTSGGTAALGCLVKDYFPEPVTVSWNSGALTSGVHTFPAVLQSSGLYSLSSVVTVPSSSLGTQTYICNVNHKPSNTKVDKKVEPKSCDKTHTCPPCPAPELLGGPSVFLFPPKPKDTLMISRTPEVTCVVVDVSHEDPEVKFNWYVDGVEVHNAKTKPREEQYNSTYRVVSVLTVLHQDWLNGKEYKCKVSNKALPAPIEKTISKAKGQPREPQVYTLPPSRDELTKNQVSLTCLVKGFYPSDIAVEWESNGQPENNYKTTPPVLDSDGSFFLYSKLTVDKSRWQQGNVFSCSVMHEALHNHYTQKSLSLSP
light: DVVMTQSPLSLPVTLGRPASISCRSSRNIVHTNGNTYLEWYQQKPGKAPKLLIYKVSNRFSGVPDRFSGSGSGTDFTLKISRVEAEDVGVYYCFQGSHIPFTFGQGTKLEIKRTVAAPSVFIFPPSDEQLKSGTASVVCLLNNFYPREAKVQWKVDNALQSGNSQESVTEQDSKDSTYSLSSTLTLSKADYEKHKVYACEVTHQGLSSPVTKSFNRGEC
Turning to B14, the Kd was found to be 2.8 nM.

B15: H9/L3 (antibody, human IgG1, kappa, V domains shown)
VH: QVTLKESGPVLVKPTETLTLTCTVSGFSLSSFGVDWVRQAPGKGLEWMGVIWGGGSTNYNSALKSRLTISKDNSKSQVVLTMTNMDPVDTATYYCAGEGSKYGAWFAYWGQGTLVTVSS
VL: DVVMTQSPLSLPVTLGQPASISCQSSENIVHTNGNTYLEWYQQKPGKAPELLIYKVSNRFSGVPDRFSGSGSGTDFTLKISRVEAEDVGVYYCFQGSHIPFTFGQGTKLEIKR
Consider B15, for which the Kd was determined as 2.97 nM.
